A short description of this data set: protein stability index of a GFP-peptide fusion (GPS, HEK-293T) (PSI 1-6); higher = more stable. To be noted: c terminus: a fixed tail appended.

± gives the standard deviation.
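Note: 24-mer peptide tiles fused after GFP, lentivirally expressed, FACS-sorted into six equal bins by GFP/DsRed ratio, decoded by Illumina sequencing, PSI is the read-weighted mean bin number.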

For QSNVLCSIFGICMVFSGLCPLLLG [PTGFR], the protein stability index runs as follows: (treatment: DMSO) 2.75 ± 0.23; (treatment: MLN4924 1 uM, 8 h) 2.63 ± 0.34.

Turning to VATTARHSAAYRADPLRVSSRDKL [FUNDC2], the protein stability index was 4.1 ± 0.096 (treatment: DMSO) and 4.1 ± 0.19 (treatment: MLN4924 1 uM, 8 h).

ADGGGAPPQGGCGGGGCDRYEPLP [KCNA3] had a protein stability index (treatment: DMSO) of 4.54 ± 0.32 and a protein stability index (treatment: MLN4924 1 uM, 8 h) of 4.75 ± 0.16.

Take YGCKVADIKKVNNFIREQDLYALK [LYSMD4]: the protein stability index worked out at 2.27 ± 0.22 (treatment: DMSO) and 2.39 ± 0.21 (treatment: MLN4924 1 uM, 8 h).

For ANVTLSLDTVEEVLSVSKILHIPQ [KLHL14], the protein stability index is, setting by setting: (treatment: DMSO) 2.31 ± 0.43; (treatment: MLN4924 1 uM, 8 h) 2.21 ± 0.38.

For the sequence CEIQVRTLASAGGPDNLVLLNPEK [ADD1], the protein stability index runs as follows: (treatment: DMSO) 3.42 ± 0.42; (treatment: MLN4924 1 uM, 8 h) 3.45 ± 0.26.

Regarding LNGDYGENIYPYEEDKDEKSSIYE [MIA2], the protein stability index runs as follows: (treatment: DMSO) 3.78 ± 0.7; (treatment: MLN4924 1 uM, 8 h) 3.94 ± 0.72.

On to PVMDVWARKQDMNTKRAIHTLAVM [KLHL14], for which the protein stability index was 2.34 ± 0.1 (treatment: DMSO) and 2.33 ± 0.17 (treatment: MLN4924 1 uM, 8 h).

For the sequence MEDGSLDITQSIEDDPLLDAQLLP [TMEM192], the protein stability index was determined as 5.28 ± 0.24 (treatment: DMSO) and 5.18 ± 0.16 (treatment: MLN4924 1 uM, 8 h).

Regarding THLPKADIFALALTVVCAAGAEPL [WEE1], the protein stability index runs as follows: (treatment: DMSO) 3.6 ± 0.35; (treatment: MLN4924 1 uM, 8 h) 3.31 ± 0.26.

NVTELLRDVAAWGRARATGGDLEE [DNAAF3] displayed a protein stability index (treatment: DMSO) of 3.63 ± 0.15 and a protein stability index (treatment: MLN4924 1 uM, 8 h) of 3.75 ± 0.31.

Sequence LELGSYIKDLSVVHSDLSSIVILD [CTDNEP1] yielded a protein stability index (treatment: DMSO) of 2.4 ± 0.13 and a protein stability index (treatment: MLN4924 1 uM, 8 h) of 2.48 ± 0.62.

In the case of EAEVTILFYFFLYQYCSIHCSDRK [CSTF3], the protein stability index (treatment: DMSO) turned out to be 2.57 ± 0.56 and the protein stability index (treatment: MLN4924 1 uM, 8 h) amounted to 2.53 ± 0.15.

IVSEVQFVESSGGGSSAVGQFVSL [BRF1] returned a protein stability index (treatment: DMSO) of 2.25 ± 0.23 and a protein stability index (treatment: MLN4924 1 uM, 8 h) of 2.23 ± 0.26.

Consider RSGRLILWEAPPLGAGGGSLLPGA [NEK8], for which the protein stability index is, setting by setting: (treatment: DMSO) 2.84 ± 0.43; (treatment: MLN4924 1 uM, 8 h) 3.11 ± 0.3.

Turning to GWPHEDAAQFTDFLIPMLEMVPEK [SRPK2], the protein stability index came to 3.83 ± 0.26 (treatment: DMSO) and 4.01 ± 0.1 (treatment: MLN4924 1 uM, 8 h).

As for AAIKVNDSVPFHLGWNSTERSLRL [MYORG], the protein stability index reads like this: (treatment: DMSO) 2.61 ± 0.16; (treatment: MLN4924 1 uM, 8 h) 2.81 ± 0.38.

As for ASPVPESSLTADLLSVDAFAAPSP [SNAP91], the protein stability index was determined as 4.88 ± 0.28 (treatment: DMSO) and 4.97 ± 0.15 (treatment: MLN4924 1 uM, 8 h).

As to AQRKEERWDMADNEQVLTTEHEKK [YJU2B], the protein stability index (treatment: DMSO) was found to be 5.57 ± 0.21 and the protein stability index (treatment: MLN4924 1 uM, 8 h) is 5.6 ± 0.12.

Consider KLRHLDISRDRLSSYYKFKLTREV [ZER1], for which the protein stability index came out at 2.35 ± 0.13 (treatment: DMSO) and 2.39 ± 0.31 (treatment: MLN4924 1 uM, 8 h).

The sequence ILQSPAFCEELESMIQEQFKKGKN [ADD1] returned a protein stability index (treatment: DMSO) of 3.53 ± 0.16 and a protein stability index (treatment: MLN4924 1 uM, 8 h) of 3.76 ± 0.17.

As to TNALIGGPMPMSMPNVMTGTMGMA [CLINT1], the protein stability index runs as follows: (treatment: DMSO) 3 ± 0.16; (treatment: MLN4924 1 uM, 8 h) 3.03 ± 0.18.

As for KQPNCSSLFKLKPLSNKTATDDTG [PLD5], the protein stability index reads like this: (treatment: DMSO) 4.46 ± 0.13; (treatment: MLN4924 1 uM, 8 h) 4.772 ± 0.045.

KNVELKFVDSIRRQFEFSVDSFQI [TENT5C]: the protein stability index is 2.29 ± 0.6 (treatment: DMSO) and 2.42 ± 0.39 (treatment: MLN4924 1 uM, 8 h).

In turn, FLCDLYPLLKLACTNTYVTGLSMI [OR4A15] came in with a protein stability index (treatment: DMSO) of 2.82 ± 0.23 and a protein stability index (treatment: MLN4924 1 uM, 8 h) of 3.25 ± 0.45.

As to QHIDNITQIEDATEKLKANAESSK [TRIM14], the protein stability index reads like this: (treatment: DMSO) 5.46 ± 0.065; (treatment: MLN4924 1 uM, 8 h) 5.33 ± 0.39.

As for MSDTAVADTRRLNSKPQDLTDAYG [SNX12], the protein stability index by setting is: (treatment: DMSO) 4.96 ± 0.24; (treatment: MLN4924 1 uM, 8 h) 5.06 ± 0.14.

Regarding VVVCQCGLSIPSHSSELTEQKLRA [RPAIN], the protein stability index was determined as 2.1 ± 0.43 (treatment: DMSO) and 2.36 ± 0.38 (treatment: MLN4924 1 uM, 8 h).

On to TVASMMHRQETVDCLKKFNARRKL [CAMK2D], for which the protein stability index reads like this: (treatment: DMSO) 3.17 ± 0.15; (treatment: MLN4924 1 uM, 8 h) 3.73 ± 0.72.

The values above are taken from the supplement of paper PMC10567573.
